According to patent publication US12233132B2, “Polyoxazoline-lipid conjugates and lipid nanoparticles and pharmaceutical compositions including same” (Serina Therapeutics, Inc., priority 2021, dated 2025):

Experiments:
[1] = Hydrolysis kinetics of POZ-lipid conjugates in rat plasma; assay type: in vitro ADME; conditions: 50% rat plasma diluted in PBS, 37° C.
Procedure: (§1) These solutions were spiked into the PBS or rat or human plasma media and allowed to incubate at 37° C. Samples were removed from hydrolysis media at different time intervals and quenched by addition of chilled 0.2% formic acid in methanol. […] The POZ-lipid conjugates were detected by UV absorption at 210 nm, and its breakdown and degradation metabolites were detected followed by mass spectrometry.

[2] = Hydrolysis kinetics of POZ-lipid conjugates in human plasma; assay type: in vitro ADME; conditions: for Half-Life 50% Human Plasma: 50% human plasma diluted in PBS, 37° C.; for rate of hydrolysis in plasma, ester versus ether linkages: compared with ether linkages (Compounds 17a, 17b and 17c)
Procedure: as §1

Substance	Half-Life 50% Rat Plasma [1]	Half-Life 50% Human Plasma [2]	rate of hydrolysis in plasma, ester versus ether linkages [2]
PEOZ 2K DMG-(triazole-2-propionate) [Compound 19b]	1 h	5 h	faster rate
PEOZ-(triazole-3-propionyl-DMG) 2K [Compound 19c]	<1 h	7 h	faster rate
